Measurements: the array DNA melting data of Ke et al.

Assay: melting temperature; melt of duplexes
Details: sodium 0.0675 M; strand 1 µM
“CGACGTGCGCTATGTGCTG+CAGCACATGGCGCACGTCG ((((((((((.((((((((+)))))))).))))))))))” gave a Tm of 63.2 °C. With “CGACGTGCTCTATGTGCTG+CAGCACATCCGGCACGTCG ((((((((...((((((((+))))))))...))))))))” the Tm was 48.4 °C. Work on “CGACGTGCCCAATGTGCTG+CAGCACATCGTGCACGTCG ((((((((.(.((((((((+)))))))).).))))))))” yielded a Tm of 45.8 °C. For “CGACGTGCCTCATGTGCTG+CAGCACATATAGCACGTCG ((((((((...((((((((+))))))))...))))))))”, the Tm was 48.8 °C. “CGACGTGCTCCATGTGCTG+CAGCACATCGAGCACGTCG ((((((((((.((((((((+)))))))).))))))))))” showed a Tm of 55.2 °C. “CGACGTGCATCATGTGCTG+CAGCACATTTCGCACGTCG ((((((((...((((((((+))))))))...))))))))” showed a Tm of 46.9 °C. Substance “CGACGTGCTCGATGTGCTG+CAGCACATCTCGCACGTCG ((((((((..(((((((((+)))))))))..))))))))” has a Tm of 53.3 °C. “CGACGTGCTCCATGTGCTG+CAGCACATAATGCACGTCG ((((((((...((((((((+))))))))...))))))))” showed a Tm of 48.4 °C. “CGACGTGCAACATGTGCTG+CAGCACATCACGCACGTCG ((((((((...((((((((+))))))))...))))))))” showed a Tm of 46.5 °C. Substance “CGACGTGCTACATGTGCTG+CAGCACATGGCGCACGTCG ((((((((..(((((((((+)))))))))..))))))))” has a Tm of 54.7 °C. In the case of “CGACGTGCGCAATGTGCTG+CAGCACATTGCGCACGTCG (((((((((((((((((((+)))))))))))))))))))”, the Tm is reported as 67.1 °C. Substance “CGACGTGCCGTATGTGCTG+CAGCACATTTTGCACGTCG ((((((((...((((((((+))))))))...))))))))” has a Tm of 47.5 °C. Substance “CGACGTGCCTGATGTGCTG+CAGCACATTTGGCACGTCG (((((((((..((((((((+))))))))..)))))))))” has a Tm of 55.6 °C. For “CGACGTGCGCGATGTGCTG+CAGCACATGCTGCACGTCG ((((((((...((((((((+))))))))...))))))))”, the Tm was 52.9 °C. With “CGACGTGCACTATGTGCTG+CAGCACATCTCGCACGTCG ((((((((...((((((((+))))))))...))))))))” the Tm was 41.6 °C. With “CGACGTGCCGTATGTGCTG+CAGCACATTGAGCACGTCG ((((((((...((((((((+))))))))...))))))))” the Tm was 49.8 °C. For “CGACGTGCTTGATGTGCTG+CAGCACATCAAGCACGTCG (((((((((((((((((((+)))))))))))))))))))”, the Tm was 64.9 °C. “CGACGTGCTCGATGTGCTG+CAGCACATCGTGCACGTCG ((((((((.((((((((((+)))))))))).))))))))” gave a Tm of 59 °C. “CGACGTGCGAGATGTGCTG+CAGCACATGCCGCACGTCG (((((((((..((((((((+))))))))..)))))))))” gave a Tm of 55.4 °C. “CGACGTGCGCTATGTGCTG+CAGCACATCCGGCACGTCG ((((((((...((((((((+))))))))...))))))))” showed a Tm of 48.1 °C. “CGACGTGCTACATGTGCTG+CAGCACATTTTGCACGTCG ((((((((.(.((((((((+)))))))).).))))))))” gave a Tm of 50.4 °C. In the case of “CGACGTGCTTCATGTGCTG+CAGCACATAGTGCACGTCG ((((((((...((((((((+))))))))...))))))))”, the Tm is reported as 44.4 °C. Work on “CGACGTGCTATATGTGCTG+CAGCACATTCTGCACGTCG ((((((((...((((((((+))))))))...))))))))” yielded a Tm of 49 °C. “CGACGTGCTATATGTGCTG+CAGCACATTGCGCACGTCG ((((((((...((((((((+))))))))...))))))))” gave a Tm of 47.4 °C. With “CGACGTGCAGCATGTGCTG+CAGCACATCGTGCACGTCG (((((((((..((((((((+))))))))..)))))))))” the Tm was 44.1 °C. Substance “CGACGTGCAATATGTGCTG+CAGCACATCTAGCACGTCG ((((((((.(.((((((((+)))))))).).))))))))” has a Tm of 49.2 °C. Substance “CGACGTGCTTGATGTGCTG+CAGCACATGATGCACGTCG ((((((((.(.((((((((+)))))))).).))))))))” has a Tm of 51.6 °C. For “CGACGTGCGACATGTGCTG+CAGCACATCATGCACGTCG ((((((((...((((((((+))))))))...))))))))”, the Tm was 49.1 °C. Substance “CGACGTGCAAAATGTGCTG+CAGCACATGACGCACGTCG ((((((((...((((((((+))))))))...))))))))” has a Tm of 51.4 °C. Work on “CGACGTGCCCCATGTGCTG+CAGCACATGAAGCACGTCG ((((((((..(((((((((+)))))))))..))))))))” yielded a Tm of 52 °C. In the case of “CGACGTGCCCAATGTGCTG+CAGCACATGGAGCACGTCG ((((((((.(.((((((((+)))))))).).))))))))”, the Tm is reported as 55.5 °C. “CGACGTGCCGGATGTGCTG+CAGCACATTAAGCACGTCG ((((((((...((((((((+))))))))...))))))))” gave a Tm of 50.4 °C. In the case of “CGACGTGCCACATGTGCTG+CAGCACATTGAGCACGTCG ((((((((...((((((((+))))))))...))))))))”, the Tm is reported as 52.2 °C. With “CGACGTGCTGGATGTGCTG+CAGCACATAGTGCACGTCG ((((((((...((((((((+))))))))...))))))))” the Tm was 45 °C. For “CGACGTGCGGTATGTGCTG+CAGCACATACCGCACGTCG (((((((((((((((((((+)))))))))))))))))))”, the Tm was 66 °C. For “CGACGTGCAGGATGTGCTG+CAGCACATGTCGCACGTCG ((((((((...((((((((+))))))))...))))))))”, the Tm was 51.4 °C. Work on “CGACGTGCTAGATGTGCTG+CAGCACATCGAGCACGTCG (((((((((.(((((((((+))))))))).)))))))))” yielded a Tm of 59.7 °C. In the case of “CGACGTGCGCCATGTGCTG+CAGCACATTATGCACGTCG ((((((((...((((((((+))))))))...))))))))”, the Tm is reported as 47.6 °C. “CGACGTGCTTGATGTGCTG+CAGCACATTACGCACGTCG ((((((((.(.((((((((+)))))))).).))))))))” showed a Tm of 50.1 °C. For “CGACGTGCCGCATGTGCTG+CAGCACATAATGCACGTCG ((((((((...((((((((+))))))))...))))))))”, the Tm was 47.9 °C. Substance “CGACGTGCCTGATGTGCTG+CAGCACATAAGGCACGTCG ((((((((((.((((((((+)))))))).))))))))))” has a Tm of 59 °C. With “CGACGTGCTTTATGTGCTG+CAGCACATGGTGCACGTCG ((((((((...((((((((+))))))))...))))))))” the Tm was 45.6 °C. “CGACGTGCTAAATGTGCTG+CAGCACATTGCGCACGTCG ((((((((..(((((((((+)))))))))..))))))))” gave a Tm of 51.2 °C. “CGACGTGCTCTATGTGCTG+CAGCACATGCTGCACGTCG ((((((((...((((((((+))))))))...))))))))” gave a Tm of 47 °C. “CGACGTGCGACATGTGCTG+CAGCACATTTTGCACGTCG ((((((((.(.((((((((+)))))))).).))))))))” showed a Tm of 51.4 °C. For “CGACGTGCGTCATGTGCTG+CAGCACATTCTGCACGTCG ((((((((...((((((((+))))))))...))))))))”, the Tm was 49.2 °C. “CGACGTGCCGGATGTGCTG+CAGCACATAACGCACGTCG ((((((((...((((((((+))))))))...))))))))” gave a Tm of 50 °C. Substance “CGACGTGCTAAATGTGCTG+CAGCACATGGAGCACGTCG (((((((((..((((((((+))))))))..)))))))))” has a Tm of 54.5 °C. In the case of “CGACGTGCCTGATGTGCTG+CAGCACATTGCGCACGTCG ((((((((...((((((((+))))))))...))))))))”, the Tm is reported as 49.3 °C. Work on “CGACGTGCTCTATGTGCTG+CAGCACATAACGCACGTCG ((((((((..(((((((((+)))))))))..))))))))” yielded a Tm of 49.7 °C. For “CGACGTGCCTAATGTGCTG+CAGCACATCCTGCACGTCG ((((((((...((((((((+))))))))...))))))))”, the Tm was 47.9 °C. With “CGACGTGCGATATGTGCTG+CAGCACATGTAGCACGTCG ((((((((.(.((((((((+)))))))).).))))))))” the Tm was 54.9 °C. For “CGACGTGCGCGATGTGCTG+CAGCACATGGAGCACGTCG ((((((((.(.((((((((+)))))))).).))))))))”, the Tm was 56 °C. In the case of “CGACGTGCGCCATGTGCTG+CAGCACATACAGCACGTCG ((((((((...((((((((+))))))))...))))))))”, the Tm is reported as 51.3 °C. “CGACGTGCTCTATGTGCTG+CAGCACATACAGCACGTCG (((((((((.(((((((((+))))))))).)))))))))” showed a Tm of 52.5 °C. Substance “CGACGTGCTCAATGTGCTG+CAGCACATGAGGCACGTCG ((((((((...((((((((+))))))))...))))))))” has a Tm of 53 °C. In the case of “CGACGTGCCGCATGTGCTG+CAGCACATTTGGCACGTCG (((((((((..((((((((+))))))))..)))))))))”, the Tm is reported as 53.9 °C. “CGACGTGCAATATGTGCTG+CAGCACATAACGCACGTCG ((((((((..(((((((((+)))))))))..))))))))” showed a Tm of 50.7 °C. Substance “CGACGTGCCCTATGTGCTG+CAGCACATCGTGCACGTCG ((((((((.(.((((((((+)))))))).).))))))))” has a Tm of 44.2 °C. Substance “CGACGTGCCAGATGTGCTG+CAGCACATACCGCACGTCG ((((((((...((((((((+))))))))...))))))))” has a Tm of 47.6 °C. Work on “CGACGTGCGTGATGTGCTG+CAGCACATCCCGCACGTCG (((((((((.(((((((((+))))))))).)))))))))” yielded a Tm of 59.4 °C. With “CGACGTGCACGATGTGCTG+CAGCACATTTGGCACGTCG ((((((((...((((((((+))))))))...))))))))” the Tm was 46.8 °C. Substance “CGACGTGCATGATGTGCTG+CAGCACATGTAGCACGTCG ((((((((...((((((((+))))))))...))))))))” has a Tm of 49.9 °C. In the case of “CGACGTGCCATATGTGCTG+CAGCACATAGTGCACGTCG ((((((((..(((((((((+)))))))))..))))))))”, the Tm is reported as 47.1 °C. For “CGACGTGCGATATGTGCTG+CAGCACATAGAGCACGTCG ((((((((..(((((((((+)))))))))..))))))))”, the Tm was 58.5 °C. Work on “CGACGTGCGTCATGTGCTG+CAGCACATGTGGCACGTCG ((((((((..(((((((((+)))))))))..))))))))” yielded a Tm of 54.8 °C. With “CGACGTGCAGCATGTGCTG+CAGCACATCAGGCACGTCG ((((((((...((((((((+))))))))...))))))))” the Tm was 47.3 °C. With “CGACGTGCACTATGTGCTG+CAGCACATCGTGCACGTCG ((((((((((.((((((((+)))))))).))))))))))” the Tm was 51.4 °C. Substance “CGACGTGCAATATGTGCTG+CAGCACATGCAGCACGTCG ((((((((...((((((((+))))))))...))))))))” has a Tm of 52.1 °C. Substance “CGACGTGCAGCATGTGCTG+CAGCACATGCTGCACGTCG (((((((((((((((((((+)))))))))))))))))))” has a Tm of 66.1 °C. Work on “CGACGTGCTACATGTGCTG+CAGCACATACAGCACGTCG (((((((((..((((((((+))))))))..)))))))))” yielded a Tm of 51.5 °C. In the case of “CGACGTGCGTGATGTGCTG+CAGCACATATAGCACGTCG ((((((((...((((((((+))))))))...))))))))”, the Tm is reported as 52.5 °C.
